Test: soluble on expression in E. coli; label from the status in PepcDB or PDB records

| Sequence | soluble on expression in E. coli |
| --- | --- |
| MNNVIIIGGGIAGLCAAISLQKIGLDVKVYDKNTEPTVAGAGIIIAPNAMQALELYGISKKIKKFGNESDGFNLVSKKGTTFNKLIIPTCYPKMYSIHRKDLHQLLLSELKEDTVKWGKECVKIEQNEENALKIVFQDGSEALGNILIAADGIHSIVRKQVTQGDNYRYAGYTCWRGVTPTKNLSLTNDFIETWGTNGRFGIVPLPNNEVYWYALINAKARDPKYKAYTTTDLYNHFKTYHNPIPSILQNASDIDMIHRDIIDITPMKQFFDKRIVFIGDAAHALTPNLGQGACQAIEDAIILAECIKNNAYYRQAFTEFEQKRRDRIEKISNTAWKVGKIAQIESKPLTIVRNKVMKRIPKWISERQAHELYRFHL | not soluble |
| MNNYIDLAKTYGGFTSLDTNYLNHLLASLTDQQKLAFITPPPSVINAYFAEIYQKQSPQAATDYYFNLSKALGLFTDQPSFEEEKPFVRLNLSGKAYGFAYQNDQEVALVFSEKAEPKKPELFFELTQIFPQYMVYEDKGQLKMQAKQFEQGECEDITPDDTLLSKIYRLANGITMLKGFNVEELWALSQTFSGQKYYDFAQREFMIYITQ | not soluble |
| MNPASPFATLTDRIDWQKVDGLVPAIVQDFQSSQVLMMGYMNPEALQKTLDTQQVTFFSRSKQRLWTKGETSGHVLQLKNIALDCDQDTLLVKVNPIGPTCHTGTVTCWDGDAQEESQMVWLHQLEQLLAERKNADPSSSYTASLYARGTKRIAQKVGEEGVEVALAATAGDKEELICESADLMYHLLVLLQEQGLAMNDVINKLKERHK | not soluble |
| MNPEKNLYPYTQESSLEQALNFEIAQVWHTRSEGTYRSFDKTHIYWCSLKHPEHQKAVVIVNGRIESAWKYQELCYDLFRQGFDVYTYDHRGQGRSERLTEDRQIGHVHEFQDYVTDLKALVEHFDLGHYQERFLLAHSMGGAIATRYIQTTPAHPFSALALSAPMFGVNMPWYLRPWALLITQIMAAVTLKPSYAPGYGPYHAKPFHLNLLTHSETRYQLFRELYEAHPELQIGGPSHRWVWQSLMATKQCLQLTRQIKIPMLILQAGEEAIVCNRAQIRLFKKLSRTQKRAALCRIAGARHELLFEQDAYRNQTLDHILRFFADSTIDHKRQHHRP | not soluble |
| MNPNFLDFEQPIADLQAKIEELRLVGNDNSLNIGDEISRLQDKSKTLTESIFGNLTSWQIARMARHPRRPYTLDYIENIFTEFDELHGDRHFSDDAAIVGGIARLDNQPVMIIGHQKGREVREKVRRNFGMPRPEGYRKACRLMEMAERFKMPILTFIDTPGAYPGIDAEERNQSEAIAWNLRVMARLKTPIIATVIGEGGSGGALAIGVCDQLNMLQYSTYAVISPEGCASILWKTAEKAPDAAEAMGITADRLKGLGIVDKVIAEPLGGAHRDPVAAAALIREELSSQLAMLKAFDNDALLARRYDRLMSYGL | not soluble |
| MNQAFKALADPTRRKILDLLKEGDLTAGEIAEHFNMTKPSISHHLNALKNAELIQDEKKGQFVMYSLNTTVFQDLLTWVFTFTNKGEEGK | not soluble |
| MNQKDVKLTVFSSDEKSFMVTATLVEKAGHAFLINSKFTQSDSKEIVEYLKKNNLSLDKIFIIHGDPDYYFGLESIKAVYPEAIAYATESTVEHIVHSVLGKLKVWKDALGENAPSNVVLPQVFKEKAIDFQGLTFELVGLEHYRTSLFNKELKVLIGGIDVFNEIHVFLADTSSKAAMEAWIENLKVLQALHADIIVPSHGSIEKSLNNQALTATMDYLRTAVQASEESGTSKDFVAKLEAAYPDYANKGVLELSAKVVTKELEHHHHHH | not soluble |
| MNQKLLKLENLLRFHTICRQVHSPSQRRLLAWCRHGFAPASSVWRDLLGARSWQTDMLIGSALHQHRLLVTKKEKRPPRSQLSPVKTKKEVEVWVGMTVEDLASAMAKDIDCVYEALLNTAIDVDSLEANSHLDEVWIKEVIKKAGMKLKWSKLKQERIRENKDAVRRPGTDPALLKPRSPVVTVMGHVDHGKTTLLDKLRETQVAAMEVGGITQHIGAFLVSLPSGEKITFLDTPGHAAFSAMRARGAQVTDIVVLVVAADDGVMKQTVESIQHAKDAEVPIILAINKCDKTDADPEKVKKELLAYDVVCEEYGGDVQAVHVSALTGDNLMALAEATIALAEILELKADPTGPVEGTVIESFTDKGRGPVTTAIIQRGTLRKGSILVAGKSWAKVRLIFDENGKILNEAYPSMPVGIIGWRDLPSAGDEILEVESEPRAREVIEWRKSEQKEEKGKDDLKIMEEKRREHQEAHRKAREKYGSLHWKERSYIKFLERKQQRPLKPKEKVERQSNVLPIIIKGDVDGSVEAILNLLDTYDASHECELELVHFGLGDISENDVTFAETFDGVIYGFNVEAGSAIQQSAAQKGVKIKLHKIIYHLIEDLQEELSSRLPHTLEEYPIGEASILATFTVTEGKKKIPVADCRVQKGQLERHKKFKLIRNGQVIWKGSLTSLKHHKDDISVIKTGMDCGLSLDEEKVEFKPGDQVICYEENKVPTKTSWDPGF | soluble |
| MNQKMIIGNAEAICLPELGITHLEARIDTGAQTSSLHVDNIDCFEKDGQSYVAFDLHPDVYHLEQVVRCTAKLKANRKVKSSNGTFEHRCVITTMLRLGDQEWPIDITLTNREKMTYMMLLGRQGMADKVLVDPSQSHLLAS | not soluble |
| MNQKYILSANNNSLIEEIHNTVQSIGYCIVRGLNLNHLDGSRRNKKLFDFLSQLGMLTNHKGDGFKSIFWDIKY | not soluble |
| MNQLVCPLCCETLKEEGAHFYKHFKYKRYACGESTCDMGFYTQQELNAHCSKHGHKRSFQKTVNPYIDKMISVVVEDAYALATDDMETVLEKRWGRDPRSVSPTSPVKKTPTDSAKNKRSSVVTPTSPPVPKKAKSGTSTTSPFAFLNRRTNNSESSLCPNASSTSAQPASSSSAQAIVDSTTSEHNISIDKTKKPRKKRNESMTAAQNQEKAGKNANYDEMSAIDKLIGWFDPNVPERRDAAKVKCAVCNEEIVYDFILRKGHVTRSHMAADVAPEDYDDLLKTAMDRSYPDLPNSDLACQLCMTGAEVRKNMRREHIEKLHTTSLPPLTCPVGECEKGFRRQCDLSSHMKDTHKASMAVYKNATFQQVRRRRNAMINEMINKCFPWSRLEAIENKTVVGEKSDSVNRAPVDRSFDTDVRVRDVNKTRRAPQYNANRSSSSDSDSEHEEAASVATGEVSETGGTDDFPQDVIYICHQFNTEVAQKLSQIVRIKPEIIDVEDVLMNDVTMEINEIPVKEETEEEQPKEENNSTLPSIPIPSIFSPYEPIVPPPATSPDPMNPPIASLLPTRILSATNVLENKYNENVSSRRSTSRERSSNRNYDERWSRNDYSNPRNYSNRSFHQRNQRGHSSSNRFNSPFVSRNNYNNNSETTEGSSRRSEYNSSSSNHHSRSSYRGNRDDRGSRW | not soluble |
| MNQQTYAFTLEMEVRDYECDMQGIVNNSVYQNYLEHARHVYLKTVGIDFKEFTERGINLVVVRAELDYKLPLQSGDRFRVGLNMVRQSPLRFAFYQDILRLPDMKPAVKARIIGTALNGRGRPEIPAELEALMQPGELEHHHHHH | soluble |
| MNQTLLSSFGTPFERVENALAALREGRGVMVLDDEDRENEGDMIFPAETMTVEQMALTIRHGSGIVCLCITEDRRKQLDLPMMVENNTSAYGTGFTVTIEAAEGVTTGVSAADRITTVRAAIADGAKPSDLNRPGHVFPLRAQAGGVLTRGGHTEATIDLMTLAGFKPAGVLCELTNDDGTMARAPECIEFANKHNMALVTIEDLVAYRQAHERKAS | soluble |
| MNRIKVAILFGGCSEEHDVSVKSAIEIAANINKEKYEPLYIGITKSGVWKMCEKPCAEWENENCYSAVLSPDKKMHGLLVKKNHEYEINHVDVAFSALHGKSGEDGSIQGLFELSGIPFVGCDIQSSAICMDKSLTYIVAKNAGIATPAFWVINKDDRPVAATFTYPVFVKPARSGSSFGVKKVNSADELDYAIESARQYDSKILIEQAVSGCEVGCAVLGNSAALVVGEVDQIRLQYGIFRIHQEVEPEKGSENAVITVPADLSAEERGRIQETVKKIYKTLGCRGLARVDMFLQDNGRIVLNEVNTLPGFTSYSRYPRMMAAAGISLPELIDRLIVLALKG | soluble |
| MNRLLQQSVSRGPLAVRASSTITTKPPTPNQITKNNAQFDKVTHTGQAWDQSDYRLQRFDISKKSVNPNVAMHLIDQRPPEDCGDKRVVFCDGGHPALGHPKVYINLDKPGVHACGYCGNRFYNSHATKAEDMKIQHLNC | not soluble |
| MNRMDNDLLAIQEARILIENAREAQKALATFSQEKLDRIVERMAGEVVKYARELAMMSHEETGFGKWQDKYIKNIFASDFLCKKIRKMKVVGIIAEDKENQTLDVGVPVGVIVALLPSTNPVSTAIYKTLIAIKSGNAIVFSPHPKAKKTTRRVLEILVRTAEASGLPCGAIGYQRTQALEGTLGLMNHKDTALIIVTGVPKLVKAAYAAGKPTIYGGPGNGPAFIERSADIKQAVADIITSRTFDHGIVSASEQSVVAEECIADEVRQELRGNGGYFLSEEEAEQLGKLFLRPDGSVNPDIVGKSAVELARKIGITVSENTKVLISEQKFVSPTNPYAKEKLCPVLAFYVEKDWFNACEKCIELLLNDGRGHTLVIHSRNEQVIREFALKKPVSRVLVNTPATLGGIGGTTNLFPALTLGCGAVGGGFTSDNVSPLNLINIRKVGYGVRKLEDITCGVQAESVGSSESAGLTRLTGLNGSLCPGPGYPKERTQDLNELLETLLEQLLPYRNA | not soluble |
| MNRMKTKQIDRHLAKFAYSEEFVGDTKRSTAAYTSVREDASIGSTHKLPLEVEEFGKMSNTVILGCGLSGMLTALSFAQKGIKTTIFESKSVKSPEFFKDIRTTALTPHSKNFLFSIDIWEELEKFVAEMQDIYVVDNQASEILDLRNDADAVLGYVVKNSDFKKMLLSKITNNPLITLIDNNQYQEVISHNDYSIIKFDDNQIKCNLLIICDGANSKVRSHYFANEIEKPYQTALTFNIKHEKPHENCAMEHFLPFGPFALLPLKDQYASSVIWSTSSDQAALIVNLPVEEVRFLTQRNAGNSLGKITIDSEISSFPLKARIANRYFHNRIVLIADTAHTVHPLAGQGLNQGIKDIEILSMIVSNNGPLQEYQKLRQEDNFIMYKLTDELNNIFSNHSKNLRCLRQIGFKVINNFKPVKNLITSYAMGKR | not soluble |
| MNRSGQRLIVSAPRQIAFSTAVRQLSATPIQCQNESENSEPQKQGWISRLLKGQSMDPSSWQKQSHSSLLSNSELMYEFMTHNYRPGEQDAYLDAFGKYKNEMNQKNPSIELVGSWTCAYGRTRDQAIHLWRHNKGYEDVDSSISLHGKDSGIRAADNDVAKLCGRRKNLIVKSFSYWREPEQRPPNHVYDLRSYVLQPGTMIDWASAWAKGIQYRREANQDVGGFFAQVGQLYVVYHIWAYPSMSGRNDTRHATWAKPGWDATVANTVPLIKKMQSKILTPTKYSQLE | not soluble |
| MNRYITRGIDNNLPIILQQQLWKLVAQRENEQSKELEAIDYFHIFQFNMHNDQLCIKHKQERPEYIKTHKANYSKAINIKKVYIIREDDVDLSYYVMLLPEEYAAALEHHHHHH | soluble |
| MNSDEVQLIKKTWEIPVATPTDSGAAILTQFFNRFPSNLEKFPFRDVPLEELSGNARFRAHAGRIIRVFDESIQVLGQDGDLEKLDEIWTKIAVSHIPRTVSKESYNQLKGVILDVLTAASSLDESQAATWAKLVDHVYGIIFKAIDDDGNAK | soluble |
